For data set [1], the system named is MDA-MB-435 tumor-bearing mice. The experiment in a line: MicroPET imaging. As to conditions: co-injection with 300 µg unlabeled c(RGDfk) per mouse. The format is in vivo, mouse.
Another data set can be described thus: MicroPET imaging. Conditions: female, athymic nude, mouse, in vivo, 100 uCi, total radioactivity. The format is in vivo, mouse.

The values that follow come from paper PMC3137711 (Molecular imaging and biology : MIB : the official …, 2011).

SMILES strings stand for the structures.

For the molecule `CC(=O)N(O)CCCCCNC(=O)CCC(=O)N(O)CCCCCNC(=O)CCC(=O)N(O)CCCCCNC(=S)Nc1ccc(NC(=S)NCCOCCOCCOCCOCCC(=O)N[C@@H](CCC(=O)NCCOCCOCCOCCOCCC(=O)NCCCC[C@@H]2NC(=O)[C@@H](Cc3ccccc3)NC(=O)[C@H](CC(=O)O)NC(=O)CNC(=O)[C@H](CCCNC(=N)N)NC2=O)C(=O)NCCOCCOCCOCCOCCC(=O)NCCCC[C@@H]2NC(=O)[C@@H](Cc3ccccc3)NC(=O)[C@H](CC(=O)O)NC(=O)CNC(=O)[C@H](CCCNC(=N)N)NC2=O)cc1` [^89Zr-Df-[FK]2-3PEG4, metal not drawn], the “decrease of tumor uptake (PET) by blocking” value in data set [1] is reported as “approximately 90%”. For the same molecule, in the data set “MicroPET imaging”, the tissue to tissue ratio at 0.5 h is 12.6 ± 1.07, the tissue to tissue ratio at 1 h came out at 16.2 ± 3.23, the tissue to tissue ratio at 2 h was 18.2 ± 2.52 and the tissue to tissue ratio at 4 h worked out at 19.7 ± 3.99. Further, the tissue to tissue ratio at 24 h in the data set “MicroPET imaging” was found to be 10.8 ± 1.31. Also, in the data set “MicroPET imaging” (SD), the tissue uptake (as a rule, the percentage of the injected dose found per gram of tissue) at 0.5 h came out at 3.98 ± 0.5 %ID/g; the tissue uptake at 2 h was 4.72 ± 0.66 %ID/g; the tissue uptake at 4 h came out at 4.47 ± 0.81 %ID/g; the tissue uptake at 24 h was determined as 2.2 ± 0.26 %ID/g.
